Source: patent US20230365640A1
Where “and” joins values, the source holds several entries; their conditions need not be identical. Equal values may be shown once.

Molecular target: recombinant SARS-CoV-2 RBD (His-tagged SARS-CoV-2 RBD fusion protein) (SARS-CoV-2), P0DTC2
Details: remark: other sources report otherwise

B1: DC-SIGN.Fc protein, Q9NNX6 59-404 (Fc fusion)
chain: QVSKVPSSISQEQSRQDAIYQNLTQLKAAVGELSEKSKLQEIYQELTQLKAAVGELPEKSKLQEIYQELTRLKAAVGELPEKSKLQEIYQELTWLKAAVGELPEKSKMQEIYQELTRLKAAVGELPEKSKQQEIYQELTRLKAAVGELPEKSKQQEIYQELTRLKAAVGELPEKSKQQEIYQELTQLKAAVERLCHPCPWEWTFFQGNCYFMSNSQRNWHDSITACKEVGAQLVVIKSAEEQNFLQLQSSRSNRFTWMGLSDLNQEGTWQWVDGSPLLPSFKQYWNRGEPNNVGEEDCAEFSGNGWNDDKCNLAKFWICKKSAASCSRDEEQFLSPAPATPNPPPA
With B1 the Kd was 18.7 µM and 16.1 µM, the koff was 0.000588 s⁻¹ and 0.000614 s⁻¹ and the kon was 339 M⁻¹ s⁻¹.
